Source: patent publication US20160060347A1 (MorphoSys, published 2016)
Substitutions are numbered along the chain they refer to.

B1: CX2-Mab #4.1 (antibody, IgG1, V domains shown)
VH: QVQLVQSGAEVKKPGSSVKVSCKASGGTFSSYAISWVRQAPGQGLEWMGHIPPNEGTPWYAQKFQGRVTITADESTSTAYMELSSLRSEDTAVYYCARGYGFDVWGQGTLVTVSS
VL: DIVLTQPPSVSGAPGQRVTISCSGSSSNIGVNIVNWYQQLPGTAPKLLIYSTSNRPSGVPDRFSGSKSGTSASLAITGLQAEDEADYYCATRDGISKSVVFGGGTKLTVLG
B2: CX2-Mab #4.2 (antibody, IgG1, V domains shown)
VH: QVQLLESGGGLVQPGGSLRLSCAASGFTFSSNGMSWVRQAPGKGLEWVSAISSSGSKTYYADSVKGRFTISRDNSKNTLYLQMNSLRAEDTAVYYCARGYGFDVWGQGTLVTVSS
VL: B1 VL with A90G, R92Y, G94V, I95Q, K97H, S98Q, V99M
B3: CX2-Mab #14 (Fab, V domains shown)
VH: QVQLQQSGPGLVKPSQTLSLTCAISGDSVSSNSAAWNWIRQSPSRGLEWLGRIYYRSKWYNDYAVSVKSRITINPDTSKNQFSLQLNSVTPEDTAVYYCARDVPYYSDYSHYVYYYGAWFDVWGQGTLVTVSS
VL: DIELTQPPSVSVSPGQTASITCSGDSIPYNYAHWYQQKPGQAPVLVIYDDSDRPSGIPERFSGSNSGNTATLTISGTQAEDEADYYCGAYDKKWVVFGGGTKLTVLG
B4: CX2-Mab #1.1 (antibody, IgG1, V domains shown)
VH: QVQLVQSGAEVKKPGSSVKVSCKASGGTFSSYAISWVRQAPGQGLEWMGGIIPIVGEAKYAQKFQGRVTITADESTSTAYMELSSLRSEDTAVYYCARDSSGYDGYYAFAYWGQGTQVTVSS
VL: DIVLTQPPSVSGAPGQRGTISCSGSSSNIGSSSVNWYQQLPGTAPKLLIYRNNQRPSGVPDRFSGSKSGTSASLAITGLQAEDEADYYCGSTDMSTNSIVFGGGTKLTVLG
B5: CX2-Mab #1.3 (antibody, IgG1, V domains shown)
VH: B4 VH
VL: DIVLTQPPSVSGAPGQRGTISCSGSSSNIGSSSVNWYQQLPGTAPKLLIYRNNQRPSGVPDRFSGSKSGTSASLAITGLQAEDEADYYCAVTTKPQGIVFGGGTKLTVLG
B6: CX2-Mab #1.6 (antibody, IgG1, V domains shown)
VH: B4 VH
VL: B4 VL with G90A, T92R, M94H, S95F, T96S, N97H, S98G, I99L
B7: CX2-Mab #1.4 (antibody, IgG1, V domains shown)
VH: B4 VH
VL: B5 VL with V91S, T93D, K94I, P95S, Q96R, G97V
B8: CX2-Mab #11 (Fab, V domains shown)
VH: QVQLVQSGAEVKKPGSSVKVSCKASGGTFTDYAISWVRQAPGQGLEWMGGIIPIFGTANYAQKFQGRVTITADESTSTAYMELSSLRSEDTAVYYCARHSYSFDYWGQGTLVTVSS
VL: DIELTQPPSVSVSPGQTASITCSGDNLRKKYAYWYQQKPGQAPVLVIGSKSNRPSGIPERFSGSNSGNTATLTISGTQAEDEADYYCQSYDSGRVVFGGGTKLTVLG
B9: CX2-Mab #3.2 (antibody, IgG1, V domains shown)
VH: QVQLLESGGGLVQPGGSLRLSCAASGFTFSSYAMSWVRQAPGKGLEWVSLISQGGLTYYADSVKGRFTISRDNSKNTLYLQMNSLRAEDTAVYYCARGRVGYAFDYWGQGTLVTVSS
VL: DIVLTQPPSVSGAPGQRVTISCSGSSSNIGVNYVNWYQQLPGTAPKLLIYSNNQRPSGVPDRFSGSKSGTSASLAITGLQAEDEADYYCQSRASGFYSVVFGGGTKLTVLG

Legend:
[1] = target: T1, hu_CXCR2_N-term (1-17)-BSA (human; bovine, coupled to carrier protein BSA; C-terminal cysteine introduced to enable coupling); assay: ELISA, coated peptide-BSA, IgG1
T1 construct: Synthetic linear peptide chemically coupled to the carrier; also called CXCR2_aa1-17_BSA; CXCR2 aa1-17 BSA
T1 sequence (P02769 25-607 limits assumed): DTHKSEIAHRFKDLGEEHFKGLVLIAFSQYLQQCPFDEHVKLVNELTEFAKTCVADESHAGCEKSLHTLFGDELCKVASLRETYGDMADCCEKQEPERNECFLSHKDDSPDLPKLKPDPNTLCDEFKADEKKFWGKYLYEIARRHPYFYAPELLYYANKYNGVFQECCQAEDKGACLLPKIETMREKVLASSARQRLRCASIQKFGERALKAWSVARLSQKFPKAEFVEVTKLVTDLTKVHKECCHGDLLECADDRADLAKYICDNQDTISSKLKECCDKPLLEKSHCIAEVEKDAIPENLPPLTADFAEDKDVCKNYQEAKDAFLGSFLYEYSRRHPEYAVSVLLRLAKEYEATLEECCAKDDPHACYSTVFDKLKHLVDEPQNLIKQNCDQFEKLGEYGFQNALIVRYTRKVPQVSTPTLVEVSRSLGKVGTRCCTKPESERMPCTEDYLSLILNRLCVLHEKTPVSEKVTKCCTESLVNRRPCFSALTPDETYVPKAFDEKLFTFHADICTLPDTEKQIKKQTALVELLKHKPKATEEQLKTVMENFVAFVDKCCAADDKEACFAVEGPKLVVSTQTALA
Experimental: (§1) 384-well Maxisorp plates (Nunc; Cat. #460518) were coated with respective CXCR2 and control peptides coupled either to BSA or Transferrin (TRF) at 1-5 μg/mL and incubated o/n at 4° C. […] After three washing steps, antibodies were added at 5-10 μg/mL and titrated in some experiments. Antibodies were incubated 1 h at room temperature and plates were subsequently washed. Binding of anti-CXCR2 antibodies was detected by using alkaline phosphatase-conjugated anti-human IgG, (Dianova, Cat #109-055-097). AttoPhos fluorescence substrate (Roche, Cat #1484281) was added according to instructions of the manufacturer and fluorescence was measured (excitation at 430 nm, emission at 535 nm) using a microplate reader.

[2] = target: T2, N-terminal peptide aa1-48, BSA-coupled (human; bovine, coupled to carrier protein BSA; C-terminal cysteine introduced to enable coupling); assay: ELISA, coated peptide-BSA, IgG1
T2 construct: also called CXCR2 aa1-48 BSA
T2 sequence (P02769 25-607 limits assumed): as above
Experimental: as §1

human CXCR2 [3] = target: T3, human CXCR2 (human, UniProt P25025 1-360); assay: FACS, CXCR2 CHO Flp-In cells, IgG1
T3 construct: Expressed on Flp-In CHO cells (FACS, Fab-ZAP, ADCC, CDC) or on bought PathHunter CHO cells (beta-arrestin assay); the construct in the PathHunter cells is not described; also called chemokine receptor CXCR2; CXCR2 CHO Flp-In cells
T3 sequence: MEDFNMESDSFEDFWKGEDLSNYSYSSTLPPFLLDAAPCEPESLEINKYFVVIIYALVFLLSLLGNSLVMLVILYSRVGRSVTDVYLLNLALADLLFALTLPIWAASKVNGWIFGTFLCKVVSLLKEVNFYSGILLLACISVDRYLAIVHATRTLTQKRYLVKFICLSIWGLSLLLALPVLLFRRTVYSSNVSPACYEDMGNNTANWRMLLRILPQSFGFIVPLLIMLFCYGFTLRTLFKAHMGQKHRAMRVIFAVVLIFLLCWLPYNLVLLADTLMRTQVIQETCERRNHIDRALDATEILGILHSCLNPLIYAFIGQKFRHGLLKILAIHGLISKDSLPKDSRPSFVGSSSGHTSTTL
Experimental: (§2) Human CXCR2-expressing Flp-In™ CHO cells were harvested at ˜80% confluence washed once with PBS (Gibco, Cat #14190-094) and detached using Versene (Invitrogen, Cat #15040-033). Subsequently, cells were counted and centrifuged at 250×g for 5 min at 4° C. Afterwards, cells were diluted in Superblock (Thermo Fisher Perbio Science, Cat #37515) to a cell concentration of 2E+05-1E+06/mL and 100 μL/well were transferred to 96-well microtiter plate (Nunc, Cat#163320). Cells were once centrifuged, supernatant discarded and antibodies added at 1 μg/mL (unless stated otherwise), incubated for 1 h at 4° C. and washed twice with FACS buffer (PBS/3% FCS/0.02% NaN3). Binding of anti-CXCR2 antibodies was detected by incubation of Phycoerythrin-conjugated anti-human IgG (Dianova, Cat #109-116-097) for 1 h at 4° C. Samples were subsequently measured using FACS Array (Becton Dickinson).

human CXCR2 [4] = target: T3, human CXCR2; assay: FACS, CXCR2 CHO Flp-In cells, Fab
Experimental: as §2

[5] = target: T2, N-terminal peptide aa1-48, BSA-coupled; assay: ELISA, coated peptide-BSA, Fab
Experimental: as §1

Binder | binding result [1] | binding result [2] | binding result (human CXCR2 [3]) | binding result (human CXCR2 [4]) | binding result [5]
B1 | binds | binds | binds | – | –
B2 | binds | binds | binds | – | –
B3 | – | – | – | binds | binds
B4 | binds | binds | binds | – | –
B5 | binds | binds | binds | – | –
B6 | binds | binds | binds | – | –
B7 | binds | binds | binds | – | –
B8 | – | – | – | binds | binds
B9 | binds | binds | binds | – | –
